For 1 molecule, Kd and koff results are on record in PMC9816786 (2022).

A value given as a limit tells only on which side of the number the result lay.

Assay in all cases: BLI
Experiment [1] has as its target P1.40 D89A.
The target of experiment [2] is P1.40 T109A.
Experiment [3] deals with P1.40 E44A.
In experiment [4] the target is P1.40 R43A.
Experiment [5] concerns the target P1.40 R111A.
Experiment [6] concerns the target P1.40 F110A.
Experiment [7] addresses P1.40 D62A.
The target of experiment [8] is P1.40 E46A.

B1: CHRD (aa 449–693) of human PCSK9, 6xHis-tagged (domain or fragment)
chain: HGAGWQLFCRTVWSAHSGPTRMATAVARCAPDEELLSCSSFSRSGKRRGERMEAQGGKLVCRAHNAFGGEGVYAIARCCLLPQANCSVHTAPPAEASMGTRVHCHQQGHVLTGCSSHWEVEDLGTHKPPVLRPRGQPNQCVGHREASIHASCCHAPGLECKVKEHGIPAPQEQVTVACEEGWTLTGCSALPGTSHVLGAYAVDNTCVVRSRDVSTTGSTSEGAVTAVAICCRSRHLAQASQELQ
modifications: biotinylated where it was immobilised for BLI (site not told)
Regarding B1, the Kd in experiment [1] was 2.79 nM; in experiment [2], > 1000 nM; in experiment [3], 0.477 nM; in experiment [4] it was 2.86 nM; in experiment [5], 3.49 nM; in experiment [6], > 1000 nM. The Kd in experiment [7] worked out at 1.26 nM; in experiment [8] it was 1.22 nM. For the same molecule, the off-rate (koff) in experiment [1] is 0.000882 s⁻¹; in experiment [2], > 0.001 s⁻¹; in experiment [3] it was 0.000359 s⁻¹; in experiment [4], 0.00141 s⁻¹; in experiment [5] it was 0.00147 s⁻¹; in experiment [6] it was > 0.001 s⁻¹. Further, the koff was determined as 0.000668 s⁻¹ in experiment [7] and 0.00064 s⁻¹ in experiment [8].

As usually defined, the Kd is the free concentration of one partner at which half of the binding sites on the other are occupied at equilibrium, for simple one-to-one binding. A higher Kd goes with a looser complex. As a reminder, the koff is the rate constant with which the complex falls apart. Higher therefore signals a short-lived complex.
